Test results taken from US10131702B2, “Glucagon-GLP-1-GIP triple agonist compounds” (priority 2013, dated 2018).
Like-named read-outs stand apart in the source and are kept apart here. Numbered stars: 1 amine (or outer) side, 2 acyl side, 3 side chain; on linkers, the order of the positions; unused ones are H or OH. Square brackets hold non-standard residues; d marks the D form. Side chains are listed from the residue outwards. * marks the point of attachment. γGlu = O=C(O)[C@H](CCC(=O)[*:2])N[*:1]; Palmitoyl = CCCCCCCCCCCCCCCC(=O)*; Aib = CC(C)(N)C(=O)O

T1: human GIP receptor (human, UniProt P48546 22-466)
T1 sequence: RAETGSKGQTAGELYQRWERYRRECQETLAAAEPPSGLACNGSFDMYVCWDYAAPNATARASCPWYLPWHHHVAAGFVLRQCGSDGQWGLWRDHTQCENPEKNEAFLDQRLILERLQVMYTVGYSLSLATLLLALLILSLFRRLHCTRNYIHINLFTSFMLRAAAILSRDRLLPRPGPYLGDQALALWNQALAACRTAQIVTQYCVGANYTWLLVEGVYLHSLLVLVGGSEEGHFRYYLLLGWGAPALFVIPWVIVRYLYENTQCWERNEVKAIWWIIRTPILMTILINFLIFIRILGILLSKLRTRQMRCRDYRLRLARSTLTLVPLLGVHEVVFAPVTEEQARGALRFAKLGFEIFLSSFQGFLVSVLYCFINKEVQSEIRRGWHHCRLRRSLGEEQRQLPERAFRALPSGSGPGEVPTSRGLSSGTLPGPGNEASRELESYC


Legend:
Test in all cases: cell-based or functional assay
[1] = target: T1, human GIP receptor
[2] = target: T2, human glucagon-like peptide 1 receptor (human, UniProt P43220 24-463)
[3] = target: T3, human glucagon receptor (human, UniProt P47871 26-477)
[4] = target: T1, human GIP receptor; remark: listed apart in the source
[5] = target: T2, human glucagon-like peptide 1 receptor; remark: listed apart in the source
[6] = target: T3, human glucagon receptor; remark: listed apart in the source

T3 sequence (P47871 26-477): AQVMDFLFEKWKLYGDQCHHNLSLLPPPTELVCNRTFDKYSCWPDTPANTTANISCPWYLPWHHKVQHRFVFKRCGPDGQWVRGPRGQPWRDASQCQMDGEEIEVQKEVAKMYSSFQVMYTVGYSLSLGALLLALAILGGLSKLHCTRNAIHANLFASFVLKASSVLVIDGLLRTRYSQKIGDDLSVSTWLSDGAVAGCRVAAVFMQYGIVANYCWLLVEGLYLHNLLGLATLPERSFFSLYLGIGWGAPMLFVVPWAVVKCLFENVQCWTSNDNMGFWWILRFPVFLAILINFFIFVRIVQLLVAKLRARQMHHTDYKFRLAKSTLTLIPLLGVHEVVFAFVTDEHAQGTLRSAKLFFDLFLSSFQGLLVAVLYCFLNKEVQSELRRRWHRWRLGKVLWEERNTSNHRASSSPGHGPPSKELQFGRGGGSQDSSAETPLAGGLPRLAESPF

Row | Binder | EC50 (cAMP induction) [1] | EC50 (cAMP induction) [2] | EC50 (cAMP induction) [3] | EC50 (cAMP induction) [4] | EC50 (cAMP induction) [5] | EC50 (cAMP induction) [6]
1 | H-Y[Aib]QGTFTSDYSKYLDSK([γGlu-Palmitoyl])AAHDFVEWLLSA-NH2 [Compound 2] | 0.35 nM | 0.089 nM | 0.046 nM | 0.089 nM | 0.046 nM | 0.046 nM
2 | YAQGTFTSDYSIYLDSKAAHDFVEWLLSA (HELM PEPTIDE1{Y.[Aib].Q.G.T.F.T.S.D.Y.S.I.Y.L.D.S.K.A.A.H.D.F.V.E.W.L.L.S.A.[am]}$$$$V2.0; SMILES CC[C@H](C)[C@H](NC(=O)[C@H](CO)NC(=O)[C@H](Cc1ccc(O)cc1)NC(=O)[C@H](CC(=O)O)NC(=O)[C@H](CO)NC(=O)[C@@H](NC(=O)[C@H](Cc1ccccc1)NC(=O)[C@@H](NC(=O)CNC(=O)[C@H](CCC(N)=O)NC(=O)C(C)(C)NC(=O)[C@@H](N)Cc1ccc(O)cc1)[C@@H](C)O)[C@@H](C)O)C(=O)N[C@@H](Cc1ccc(O)cc1)C(=O)N[C@@H](CC(C)C)C(=O)N[C@@H](CC(=O)O)C(=O)N[C@@H](CO)C(=O)N[C@@H](CCCCN)C(=O)N[C@@H](C)C(=O)N[C@@H](C)C(=O)N[C@@H](Cc1c[nH]cn1)C(=O)N[C@@H](CC(=O)O)C(=O)N[C@@H](Cc1ccccc1)C(=O)N[C@H](C(=O)N[C@@H](CCC(=O)O)C(=O)N[C@@H](Cc1c[nH]c2ccccc12)C(=O)N[C@@H](CC(C)C)C(=O)N[C@@H](CC(C)C)C(=O)N[C@@H](CO)C(=O)N[C@@H](C)C(N)=O)C(C)C) [Compound 5] | 0.17 nM | 0.0092 nM | 0.065 nM | 0.009 nM | 0.065 nM | 0.065 nM
3 | YAQGTFTSDYSKALDSKAAHDFVEWLLSA (HELM PEPTIDE1{Y.[Aib].Q.G.T.F.T.S.D.Y.S.K.A.L.D.S.K.A.A.H.D.F.V.E.W.L.L.S.A.[am]}$$$$V2.0; SMILES CC(C)C[C@H](NC(=O)[C@H](C)NC(=O)[C@H](CCCCN)NC(=O)[C@H](CO)NC(=O)[C@H](Cc1ccc(O)cc1)NC(=O)[C@H](CC(=O)O)NC(=O)[C@H](CO)NC(=O)[C@@H](NC(=O)[C@H](Cc1ccccc1)NC(=O)[C@@H](NC(=O)CNC(=O)[C@H](CCC(N)=O)NC(=O)C(C)(C)NC(=O)[C@@H](N)Cc1ccc(O)cc1)[C@@H](C)O)[C@@H](C)O)C(=O)N[C@@H](CC(=O)O)C(=O)N[C@@H](CO)C(=O)N[C@@H](CCCCN)C(=O)N[C@@H](C)C(=O)N[C@@H](C)C(=O)N[C@@H](Cc1c[nH]cn1)C(=O)N[C@@H](CC(=O)O)C(=O)N[C@@H](Cc1ccccc1)C(=O)N[C@H](C(=O)N[C@@H](CCC(=O)O)C(=O)N[C@@H](Cc1c[nH]c2ccccc12)C(=O)N[C@@H](CC(C)C)C(=O)N[C@@H](CC(C)C)C(=O)N[C@@H](CO)C(=O)N[C@@H](C)C(N)=O)C(C)C) [Compound 7] | 0.42 nM | 0.031 nM | 0.086 nM | 0.031 nM | 0.086 nM | 0.086 nM
4 | YAQGTFTSDYSKYLESKAAHDFVEWLLSA (HELM PEPTIDE1{Y.[Aib].Q.G.T.F.T.S.D.Y.S.K.Y.L.E.S.K.A.A.H.D.F.V.E.W.L.L.S.A.[am]}$$$$V2.0; SMILES CC(C)C[C@H](NC(=O)[C@H](CC(C)C)NC(=O)[C@H](Cc1c[nH]c2ccccc12)NC(=O)[C@H](CCC(=O)O)NC(=O)[C@@H](NC(=O)[C@H](Cc1ccccc1)NC(=O)[C@H](CC(=O)O)NC(=O)[C@H](Cc1c[nH]cn1)NC(=O)[C@H](C)NC(=O)[C@H](C)NC(=O)[C@H](CCCCN)NC(=O)[C@H](CO)NC(=O)[C@H](CCC(=O)O)NC(=O)[C@H](CC(C)C)NC(=O)[C@H](Cc1ccc(O)cc1)NC(=O)[C@H](CCCCN)NC(=O)[C@H](CO)NC(=O)[C@H](Cc1ccc(O)cc1)NC(=O)[C@H](CC(=O)O)NC(=O)[C@H](CO)NC(=O)[C@@H](NC(=O)[C@H](Cc1ccccc1)NC(=O)[C@@H](NC(=O)CNC(=O)[C@H](CCC(N)=O)NC(=O)C(C)(C)NC(=O)[C@@H](N)Cc1ccc(O)cc1)[C@@H](C)O)[C@@H](C)O)C(C)C)C(=O)N[C@@H](CO)C(=O)N[C@@H](C)C(N)=O) [Compound 8] | 0.2 nM | 0.015 nM | 0.042 nM | 0.015 nM | 0.042 nM | 0.042 nM
5 | YAQGTFTSDYSKYLDSKAARDFVEWLLSA (HELM PEPTIDE1{Y.[Aib].Q.G.T.F.T.S.D.Y.S.K.Y.L.D.S.K.A.A.R.D.F.V.E.W.L.L.S.A.[am]}$$$$V2.0; SMILES CC(C)C[C@H](NC(=O)[C@H](CC(C)C)NC(=O)[C@H](Cc1c[nH]c2ccccc12)NC(=O)[C@H](CCC(=O)O)NC(=O)[C@@H](NC(=O)[C@H](Cc1ccccc1)NC(=O)[C@H](CC(=O)O)NC(=O)[C@H](CCCNC(=N)N)NC(=O)[C@H](C)NC(=O)[C@H](C)NC(=O)[C@H](CCCCN)NC(=O)[C@H](CO)NC(=O)[C@H](CC(=O)O)NC(=O)[C@H](CC(C)C)NC(=O)[C@H](Cc1ccc(O)cc1)NC(=O)[C@H](CCCCN)NC(=O)[C@H](CO)NC(=O)[C@H](Cc1ccc(O)cc1)NC(=O)[C@H](CC(=O)O)NC(=O)[C@H](CO)NC(=O)[C@@H](NC(=O)[C@H](Cc1ccccc1)NC(=O)[C@@H](NC(=O)CNC(=O)[C@H](CCC(N)=O)NC(=O)C(C)(C)NC(=O)[C@@H](N)Cc1ccc(O)cc1)[C@@H](C)O)[C@@H](C)O)C(C)C)C(=O)N[C@@H](CO)C(=O)N[C@@H](C)C(N)=O) [Compound 6] | 0.34 nM | 0.0095 nM | 0.018 nM | 0.01 nM | 0.018 nM | 0.018 nM
6 | YAQGTFTSDYSIYLDSKAAKDFVEWLLSA (HELM PEPTIDE1{Y.[Aib].Q.G.T.F.T.S.D.Y.S.I.Y.L.D.S.K.A.A.K.D.F.V.E.W.L.L.S.A.[am]}$$$$V2.0; SMILES CC[C@H](C)[C@H](NC(=O)[C@H](CO)NC(=O)[C@H](Cc1ccc(O)cc1)NC(=O)[C@H](CC(=O)O)NC(=O)[C@H](CO)NC(=O)[C@@H](NC(=O)[C@H](Cc1ccccc1)NC(=O)[C@@H](NC(=O)CNC(=O)[C@H](CCC(N)=O)NC(=O)C(C)(C)NC(=O)[C@@H](N)Cc1ccc(O)cc1)[C@@H](C)O)[C@@H](C)O)C(=O)N[C@@H](Cc1ccc(O)cc1)C(=O)N[C@@H](CC(C)C)C(=O)N[C@@H](CC(=O)O)C(=O)N[C@@H](CO)C(=O)N[C@@H](CCCCN)C(=O)N[C@@H](C)C(=O)N[C@@H](C)C(=O)N[C@@H](CCCCN)C(=O)N[C@@H](CC(=O)O)C(=O)N[C@@H](Cc1ccccc1)C(=O)N[C@H](C(=O)N[C@@H](CCC(=O)O)C(=O)N[C@@H](Cc1c[nH]c2ccccc12)C(=O)N[C@@H](CC(C)C)C(=O)N[C@@H](CC(C)C)C(=O)N[C@@H](CO)C(=O)N[C@@H](C)C(N)=O)C(C)C) [Compound 10] | 0.24 nM | 0.012 nM | 0.1 nM | 0.012 nM | 0.1 nM | 0.1 nM
7 | YAQGTFTSDYSIYLDEKAAHDFVEWLLSA (HELM PEPTIDE1{Y.[Aib].Q.G.T.F.T.S.D.Y.S.I.Y.L.D.E.K.A.A.H.D.F.V.E.W.L.L.S.A.[am]}$$$$V2.0; SMILES CC[C@H](C)[C@H](NC(=O)[C@H](CO)NC(=O)[C@H](Cc1ccc(O)cc1)NC(=O)[C@H](CC(=O)O)NC(=O)[C@H](CO)NC(=O)[C@@H](NC(=O)[C@H](Cc1ccccc1)NC(=O)[C@@H](NC(=O)CNC(=O)[C@H](CCC(N)=O)NC(=O)C(C)(C)NC(=O)[C@@H](N)Cc1ccc(O)cc1)[C@@H](C)O)[C@@H](C)O)C(=O)N[C@@H](Cc1ccc(O)cc1)C(=O)N[C@@H](CC(C)C)C(=O)N[C@@H](CC(=O)O)C(=O)N[C@@H](CCC(=O)O)C(=O)N[C@@H](CCCCN)C(=O)N[C@@H](C)C(=O)N[C@@H](C)C(=O)N[C@@H](Cc1c[nH]cn1)C(=O)N[C@@H](CC(=O)O)C(=O)N[C@@H](Cc1ccccc1)C(=O)N[C@H](C(=O)N[C@@H](CCC(=O)O)C(=O)N[C@@H](Cc1c[nH]c2ccccc12)C(=O)N[C@@H](CC(C)C)C(=O)N[C@@H](CC(C)C)C(=O)N[C@@H](CO)C(=O)N[C@@H](C)C(N)=O)C(C)C) [Compound 9] | 0.056 nM | 0.0055 nM | 0.097 nM | 0.006 nM | 0.097 nM | 0.097 nM
